According to US20190375786A1, “STABLE PEPTIDES AND METHODS OF USE THEREOF” (Fred Hutchinson Cancer Research Center, priority 2016, published 2019):
Entries after “also recorded” stand apart in the source; their conditions may differ. Positions of bridges follow the written chain, without caps; N, C: chain ends. Residues, ends and D or L forms follow the SMILES beside them. No end group written: not given here.

Key:
[1] = Resistance to reduction by DTT, RP-HPLC; assay type: physicochemical; details: 10 mM DTT; HPLC vs non-reduced peptide
How it was run: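 Peptide (12.5 μg from a 2 mg/ml stock, or 0.015 mM final in PBS) was held 30 min at room temperature with or without 10 mM DTT. Reduced and non-reduced forms were compared by C-18 RP-HPLC using a 5–45% acetonitrile/0.1% TFA gradient over 10 min, with detection at 214 and 280 nm.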

[2] = Circular dichroism thermal stability, heating 20° C. to 95° C.; assay type: physicochemical; details: 10 mM phosphate buffer pH 7.4; heated 20° C. to 95° C.
Experimental: (§1) Protein secondary structures were assessed using Circular Dichrosim (CD). CD spectra were measured with a Jasco J-720W spectropolarimeter using a 1.0 mm path length cell. Protein samples in 10 mM phosphate buffer (pH=7.4) were at 25-30 μM protein concentration. Samples were analyzed at wavelength ranges of […]. Data were expressed in terms of relative ellipticity [θ]; (mdeg). To determine thermal stability of proteins, samples were subjected to incremental increase in temperature at a ramp of 2° C./min from 20° C. to 95° C. Stability and protein unfolding were monitored at 220 and 215 for α-helix and β-sheet secondary structures, respectively. Data are expressed in terms of relative ellipticity [θ], reported in mdeg. For SEQ ID NO: 43 and its point mutant variants, no changes to the α-helix-dominated structure were observed upon heating up to 95° C. […] Additionally, protein melting temperature (Tm) determination was performed by monitoring protein unfolding using SYPRO Orange dye (Molecular Probes). In brief, 0.1 mg/mL protein sample in 20 μL total volume PBS buffer were mixed with 24, of 10× SYPRO Orange dye. Dye intercalation into the hydrophobic protein core following protein unfolding was assayed using the C1000 Touch Thermal Cycler with CFX96 Deep Well Real-Time System (BioRad). Samples were heated from 20° C. to 95° C. with stepwise increments of 0.5° C. per minute and a 5 sec hold step for every point, followed by fluorescence reading. Tm were calculated by analyzing the derivatives of Relative florescence Units (RFU). FIG. 17D illustrates this SYPRO Orange melting assay of Peptides.

[3] = SYPRO Orange melting assay; assay type: physicochemical; details: heating from 20° C. to 95° C.
Experimental: as §1

[4] = Resistance to elevated temperature, HPLC; assay type: physicochemical; details: 100° C. for 1 hour; HPLC
How it was run: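 Peptides were incubated at room temperature, 70° C or 100° C for one hour in ddH2O; another protocol used 70° C, 75° C or 100° C for one hour in 0.5 mM PBS, then pelleting and analysis of the supernatant. Remaining peptide was measured by C-18 RP-HPLC, 5–45% acetonitrile/0.1% TFA over 10 min.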

pepsin [5] = molecular target: T1, pepsin (Sus scrofa, UniProt P00791); assay: Pepsin digestion resistance in simulated gastric fluid, RP-HPLC; assay type: in vitro ADME, porcine; parameters: purchased Sigma Aldrich P7012; details: HPLC; for resistance to pepsin digestion (in words): 500 U/ml pepsin (50 U per reaction) in SGF, 30 minutes at 37.5° C.; for resistance to pepsin, Example 7 conditions (in words): 500 U pepsin (5000 U/ml) in SGF, 30 min at room temperature, with or without DTT
How it was run: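 Digestion resistance read by reversed-phase HPLC (C-18, 0.1% TFA, 5–45% acetonitrile over 10 min; 214/280 nm) after 12.5 μg peptide spent 30 min at 37.5 °C in pH 1.05 simulated gastric fluid, with or without 500 U/ml pepsin. Some samples quenched with Tris base and DTT.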

[6] = Stability in simulated gastric fluid (SGF, pH 1.05), RP-HPLC; assay type: physicochemical; details: HPLC vs non-reduced peptide
Experimental: (§2) Peptides were first suspended in 500 ul of ddH2O to a stock concentration of 2 mg/ml. Reactions were prepared by adding 12.5 ug of peptide from the stock solution to a 10 mM solution of DTT in PBS and allowed to incubate at room temperature for 30 minutes. Other reactions were prepared with 12.5 μg peptide with or without 500 U/ml pepsin in simulated gastric fluid (SGF; pH 1.05; […] sodium chloride in 0.7% (v/v) hydrochloric acid) and were incubated for 30 minutes at 37.5° C. Some reactions were quenched with a final concentration of 100 mM Tris base and 10 mM dithiothreitol (DTT). Some reactions were performed in all of the above components, including simulated gastric fluid, pepsin, Tris, and DTT (referred to as SPTD). Reversed phase HPLC (RP-HPLC) was run on samples using an Agilent 1260 HPLC equipped with a C-18 Poroshell 120B column. Sample were analyzed by a gradient method with a mobile phase of Solvent A (water with 0.1% TFA) and Solvent B (acetonitrile with 0.1% TFA). Solvent B was ramped up from 5%-45% of the mobile phase over a period of 10 minutes. Peptides were detected at an absorbance of 214 nm and 280 nm.
This example illustrates peptide stability in biological conditions including in the presence of reducing agents, proteases, oxidative conditions, acidic conditions, and simulated gastric fluids. […] Various peptides were suspended in 500 μl of ddH2O at a stock concentration of 2 mg/ml. This was then diluted in accord with the reaction conditions to prevent adverse buffering effects. Reactions were prepared with 12.5 μg peptide dissolved in solution and, in some samples, additionally suspended in a 10 mM solution of DTT, simulated gastric fluid (pH 1.05; […] sodium chloride in 0.7% (v/v) hydrochloric acid), 500 U pepsin (5000 U/ml pepsin), 50 U trypsin (500 U/ml trypsin) with 1 mg/ml inhibitor in PBS, or a combination of any of these conditions. All protease reactions were incubated for 30 min at room temperature and then quenched. Pepsin reactions were quenched by adding Tris base to a final concentration of 0.075 M. Trypsin reactions were quenched by adding excess soybean trypsin inhibitor. RP-HPLC was then run on samples using an Agilent 1260 HPLC equipped with a C-18 Poroshell 120B column. Sample were analyzed by a gradient method with a mobile phase of Solvent A (water with 0.1% TFA) and Solvent B (acetonitrile with 0.1% TFA). Solvent B was ramped up from 5%-45% of the mobile phase over a period of 10 minutes.

trypsin = trypsin (Sus scrofa, UniProt P00761); assay: Trypsin digestion resistance of soluble peptide, RP-HPLC; assay type: in vitro ADME, porcine; parameters: purchased Sigma Aldrich 6567; details: HPLC; for resistance to trypsin, Example 7 conditions (in words): 50 U trypsin (500 U/ml), 30 min at room temperature, with or without 10 mM DTT; for resistance to trypsin digestion (in words): 500 U/ml trypsin (50 U per reaction), 30 minutes at 37.5° C.
How it was run: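 Read-out was RP-HPLC (C-18, water/acetonitrile with 0.1% TFA, 5-45% over 10 min) of peptide left after trypsin treatment. Digest: 12.5 μg peptide, 500 U/ml porcine trypsin, PBS, 37.5° C for 30 min, stopped by soybean trypsin inhibitor; samples then reduced (10 mM DTT) or left non-reduced.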

pepsin [7] = molecular target: T1, pepsin; assay: Stability in SPTD (simulated gastric fluid, pepsin, Tris and DTT), RP-HPLC; assay type: in vitro ADME; details: SGF pH 1.05 with 500 U/ml pepsin, 100 mM Tris, 10 mM DTT
Experimental: as §2

[8] = Resistance to reduction by reduced glutathione (GSH), HPLC; assay type: physicochemical; details: 10 mM reduced glutathione (GSH); HPLC vs non-reduced peptide
Experimental: This example describes stability of designed or engineered peptides under reducing conditions. Peptides that are designed or engineered to interact with one or more target proteins in the cell, such as proteins in the nucleus, are exposed to reducing conditions in the cytosolic compartment of cells. Thus, it is advantageous for peptides of this disclosure to display stability in reducing conditions. Stability of peptides of this disclosure was tested in 10 mM DTT and 10 mM GSH. GSH is a more physiologically relevant reducing agent for testing peptide stability in intracellular conditions. An example of a peptide-target protein interaction is a peptide binding to a TEAD protein.

TEAD protein = assay: Binding of surface-displayed (SDGF) peptide to biotinylated target protein after reducing agent, flow cytometry; assay type: cell-based; details: HEK-293 cells displaying peptide, 20 nM biotinylated target protein
Experimental: Designed or engineered peptides of this disclosure were also tested to evaluate if the peptides' binding activity to their target protein (e.g., TEAD protein) was affected by exposure to reducing conditions. HEK-293T suspension cells were transfected with a surface display GFP FasL(SDGF) vector comprising SEQ ID NO: 39 (SDGF-SEQ ID NO: 39) or SDGF vector comprising SEQ ID NO: 43 (SDGF-SEQ ID NO: 43) construct. Cultures were grown for two days, followed by incubation in 10 mM GSH or 10 mM DTT. Finally, cells were stained with biotinylated-target protein to evaluate the binding activity of a peptide to the target protein. FIG. 15 illustrates the stability of peptides of SEQ ID NO: 39 and SEQ ID NO: 43 after exposure to a reducing agent. Each peptide was expressed on a cell surface and tested for binding to a target protein after cells expressing SDGF-SEQ ID NO: 43 or SEQ ID NO: 39 were exposed to a reducing agent. FIG. 15A illustrates a flow cytometry plot showing binding of HEK-293 suspension cells transfected with SDGF-SEQ ID NO: 39 (GFP) incubated for 5 minutes in PBS, 10 mM DTT, or 10 mM reduced glutathione (GSH) before staining with 20 nM biotinylated target protein and 20 nM AF647-streptavidin. FIG. 15B illustrates a flow cytometry plot showing binding of HEK-293 suspension cells transfected with SDGF-SEQ ID NO: 43 (GFP) incubated for 5 minutes in PBS, 10 mM DTT, or 10 mM reduced glutathione (GSH) before staining with 20 nM biotinylated target protein and 20 nM AF647-streptavidin. FIG. 15C illustrates quantification of the AF647 mean fluorescence intensity (MFI) of cells falling within the “slice” gate shown in FIG. 15A and FIG. 15B. […] In other words, peptides of SEQ ID NO: 39 and SEQ ID NO: 43 were resistant to reduction by GSH.

trypsin, sequence (P00761 9-231): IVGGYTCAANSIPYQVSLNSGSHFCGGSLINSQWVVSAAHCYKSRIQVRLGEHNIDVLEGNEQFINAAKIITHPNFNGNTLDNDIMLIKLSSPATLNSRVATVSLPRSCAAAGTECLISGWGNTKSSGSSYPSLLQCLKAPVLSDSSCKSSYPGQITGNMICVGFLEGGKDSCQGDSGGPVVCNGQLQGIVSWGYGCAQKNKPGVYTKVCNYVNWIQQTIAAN
T1 sequence (P00791 60-385): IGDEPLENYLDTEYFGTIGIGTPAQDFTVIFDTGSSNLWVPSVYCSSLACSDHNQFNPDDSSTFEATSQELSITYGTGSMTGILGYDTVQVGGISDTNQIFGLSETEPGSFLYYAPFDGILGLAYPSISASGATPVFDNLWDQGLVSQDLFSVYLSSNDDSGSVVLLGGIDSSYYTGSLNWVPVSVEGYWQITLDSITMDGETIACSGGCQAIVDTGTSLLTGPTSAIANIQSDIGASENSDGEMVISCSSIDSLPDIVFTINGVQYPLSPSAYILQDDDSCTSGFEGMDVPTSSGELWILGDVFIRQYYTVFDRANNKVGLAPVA

GSPDEYIERAKECCKKQDIQCCLRIFDESGDPNVMLICLFCW [SEQ ID NO: 44]
resistance to reduction by DTT (in words) [1]: partially resistant
CD secondary structure signature before (Pre) and after (Post) incubation at 95° C. [2]: similar; also recorded: identical
melting temperature (Tm) [3]: no melting temperature could be determined

GSPDEYIERAKECCKKQDIQCCLRIFDESKDPNVMLICLFCP [SEQ ID NO: 45]
resistance to incubation at 100° C. (in words) [4]: resistant
resistance to reduction by DTT (in words) [1]: partially resistant
CD secondary structure signature before (Pre) and after (Post) incubation at 95° C. [2]: identical; also recorded: similar
melting temperature (Tm) [3]: no melting temperature could be determined
resistance to pepsin digestion (in words) (pepsin [5]): resistant

GSGVPINVRSRGSRDSLDPSRRAGMRFGRSINSRSHSTP [SEQ ID NO: 177, reference compound]
stability in simulated gastric fluid / low pH (in words) [6]: stable
resistance to trypsin, Example 7 conditions (in words) (trypsin): degraded
resistance to pepsin, Example 7 conditions (in words) (pepsin [5]): degraded

GSQFTNVSCTTSRECWSVCQRLHNTSRGRCMNRRCRCYS [SEQ ID NO: 2]
resistance to reduction by DTT (in words) [1]: remained intact; also recorded: highly resistant
stability in simulated gastric fluid / low pH (in words) [6]: remained intact
resistance in SPTD (SGF, pepsin, Tris, DTT) (in words) (pepsin [7]): resistant
resistance to trypsin digestion (in words) (trypsin): highly resistant

PDEYIERAKECCKKGDIQCCLRYFEESGDPNVMLICLFCP [SEQ ID NO: 122]
resistance to GSH reducing conditions [8]: resistant

CC[C@H](C)[C@@H]1NC(=O)[C@@H]2CSSC[C@H](NC(=O)[C@H](CCCCN)NC(=O)[C@@H](NC(=O)[C@H](CC(N)=O)NC(=O)[C@@H](NC(=O)[C@@H]3CCCN3C(=O)[C@@H](NC(=O)CNC(=O)[C@H](CO)NC(=O)CN)C(C)C)[C@@H](C)CC)C(C)C)C(=O)N[C@@H](CCCNC(=N)N)C(=O)NCC(=O)N[C@@H](CO)C(=O)N[C@@H](CCCNC(=N)N)C(=O)N[C@@H](CC(=O)O)C(=O)N[C@H]3CSSC[C@H](NC(=O)[C@H](CCCCN)NC(=O)[C@H](CO)NC(=O)[C@H](CC(N)=O)NC1=O)C(=O)N[C@@H](Cc1c[nH]cn1)C(=O)N[C@H](C(=O)N[C@H](C(=O)N1CCC[C@H]1C(=O)O)[C@@H](C)O)CSSC[C@H](NC(=O)[C@@H]1CCCN1C(=O)[C@H](CC(=O)O)NC(=O)[C@H](CC(C)C)NC3=O)C(=O)N[C@@H](CCCCN)C(=O)N[C@@H](CCCCN)C(=O)N[C@@H](C)C(=O)NCC(=O)N[C@@H](CCSC)C(=O)N[C@@H](CCCNC(=N)N)C(=O)N[C@@H](Cc1ccccc1)C(=O)NCC(=O)N[C@@H](CCCCN)C(=O)N2 [SEQ ID NO: 27] (H-GSGVPINVKCRGSRDCLDPCKKAGMRFGKCINSKCHCTP-OH; disulfide 10-30, 16-35, 20-37)
stability in simulated gastric fluid / low pH (in words) [6]: highly resistant; also recorded: remained intact
resistance in SPTD (SGF, pepsin, Tris, DTT) (in words) (pepsin [7]): highly resistant
resistance to trypsin, Example 7 conditions (in words) (trypsin): remained intact
resistance to trypsin digestion (in words) (trypsin): highly resistant; also recorded: fully resistant
resistance to pepsin, Example 7 conditions (in words) (pepsin [5]): remained intact
resistance to pepsin digestion (in words) (pepsin [5]): highly resistant

GSPDEYIERAKECCKKGDIQCCLRYFEESGDPNVMLICLFCP [SEQ ID NO: 39]
resistance to GSH reducing conditions [8]: resistant
binding to target protein after DTT treatment (TEAD protein; 5 minutes in 10 mM DTT): partial loss in binding
binding to target protein after GSH treatment (TEAD protein; 5 minutes in 10 mM GSH): no loss in binding
